{"source": "paper PMC2756985", "about": "(Biochemistry, 2009)", "molecules": {"B1": {"name": "BjFixL: FixL gas sensor kinase (literature comparator) (protein, UniProt P23222 1-505, looked up)", "Sensor protein FixL": "MAPTRVTHPPDDGRGEHFRVRIEGFGVGTWDLDLKTWALDWSDTARTLLGIGQDQPASYDLFLSRLEPDDRERVESAIKRVSERGGGFDVSFRVAGTSNAGQWIRARAGLIRDEAGTARHLSGIFLDIDEEKQVEGALRTRETHLRSILHTIPDAMIVIDGHGIIQLFSTAAERLFGWSELEAIGQNVNILMPEPDRSRHDSYISRYRTTSDPHIIGIGRIVTGKRRDGTTFPMHLSIGEMQSGGEPYFTGFVRDLTEHQQTQARLQELQSELVHVSRLSAMGEMASALAHELNQPLAAISNYMKGSRRLLAGSSDPNTPKVESALDRAAEQALRAGQIIRRLRDFVARGESEKRVESLSKLIEEAGALGLAGAREQNVQLRFSLDPGADLVLADRVQIQQVLVNLFRNALEAMAQSQRRELVVTNTPAADDMIEVEVSDTGSGFQDDVIPNLFQTFFTTKDTGMGVGLSISRSIIEAHGGRMWAESNASGGATFRFTLPAADEN"}, "B2": {"name": "EcDos: Escherichia coli Dos, heme-regulated phosphodiesterase (protein, UniProt P76129 1-799, looked up)", "Oxygen sensor protein DosP": "MKLTDADNAADGIFFPALEQNMMGAVLINENDEVMFFNPAAEKLWGYKREEVIGNNIDMLIPRDLRPAHPEYIRHNREGGKARVEGMSRELQLEKKDGSKIWTRFALSKVSAEGKVYYLALVRDASVEMAQKEQTRQLIIAVDHLDRPVIVLDPERHIVQCNRAFTEMFGYCISEASGMQPDTLLNIPEFPADNRIRLQQLLWKTARDQDEFLLLTRTGEKIWIKASISPVYDVLAHLQNLVMTFSDITEERQIRQLEGNILAAMCSSPPFHEMGEIICRNIESVLNESHVSLFALRNGMPIHWASSSHGAEIQNAQSWSATIRQRDGAPAGILQIKTSSGAETSAFIERVADISQHMAALALEQEKSRQHIEQLIQFDPMTGLPNRNNLHNYLDDLVDKAVSPVVYLIGVDHIQDVIDSLGYAWADQALLEVVNRFREKLKPDQYLCRIEGTQFVLVSLENDVSNITQIADELRNVVSKPIMIDDKPFPLTLSIGISYDLGKNRDYLLSTAHNAMDYIRKNGGNGWQFFSPAMNEMVKERLVLGAALKEAISNNQLKLVYQPQIFAETGELYGIEALARWHDPLHGHVPPSRFIPLAEEIGEIENIGRWVIAEACRQLAEWRSQNIHIPALSVNLSALHFRSNQLPNQVSDAMHAWGIDGHQLTVEITESMMMEHDTEIFKRIQILRDMGVGLSVDDFGTGFSGLSRLVSLPVTEIKIDKSFVDRCLTEKRILALLEAITSIGQSLNLTVVAEGVETKEQFEMLRKIHCRVIQGYFFSRPLPAEEIPGWMSSVLPLKI"}, "B3": {"name": "Bovine Mb: bovine myoglobin (protein, UniProt P02192 2-154, looked up)", "Myoglobin": "GLSDGEWQLVLNAWGKVEADVAGHGQEVLIRLFTGHPETLEKFDKFKHLKTEAEMKASEDLKKHGNTVLTALGGILKKKGHHEAEVKHLAESHANKHKIPVKYLEFISDAIIHVLHAKHPSDFGADAQAAMSKALELFRNDMAAQYKVLGFHG"}, "B4": {"name": "full-length Y171F DevS (protein, UniProt P9WGK3 1-578, looked up, variant Y171F)", "chain": "MTTGGLVDENDGAAMRPLRHTLSQLRLHELLVEVQDRVEQIVEGRDRLDGLVEAMLVVTAGLDLEATLRAIVHSATSLVDARYGAMEVHDRQHRVLHFVYEGIDEETVRRIGHLPKGLGVIGLLIEDPKPLRLDDVSAHPASIGFPPYHPPMRTFLGVPVRVRDESFGTLFLTDKTNGQPFSDDDEVLVQALAAAAGIAVANARLYQQAKARQSWIEATRDIATELLSGTEPATVFRLVAAEALKLTAADAALVAVPVDEDMPAADVGELLVIETVGSAVASIVGRTIPVAGAVLREVFVNGIPRRVDRVDLEGLDELADAGPALLLPLRARGTVAGVVVVLSQGGPGAFTDEQLEMMAAFADQAALAWQLATSQRRMRELDVLTDRDRIARDLHDHVIQRLFAIGLALQGAVPHERNPEVQQRLSDVVDDLQDVIQEIRTTIYDLHGASQGITRLRQRIDAAVAQFADSGLRTSVQFVGPLSVVDSALADQAEAVVREAVSNAVRHAKASTLTVRVKVDDDLCIEVTDNGRGLPDEFTGSGLTNLRQRAEQAGGEFTLASVPGASGTVLRWSAPLSQ", "modifications": "full-length"}, "B5": {"name": "DevS: full length wild-type heme sensor kinase DevS of Mycobacterium tuberculosis (protein, UniProt P9WGK3 1-578, looked up)", "chain": "B4 chain with F171Y", "modifications": "full-length"}}, "key": {"[1]": {"details": "cited from earlier work"}, "[2]": {"details": "cited from earlier work", "remark": "listed apart in the source"}, "[3]": {"details": "cited from earlier work", "remark": "listed apart in the source"}, "[4]": {"experiment": "Autooxidation of oxy-ferrous DevS proteins to the ferric", "format": "physicochemical, Mycobacterium tuberculosis", "details": "for autooxidation rate k / autooxidation t1/2: 25 °C"}, "[5]": {"experiment": "CO association and dissociation kinetics of DevS proteins, stopped flow", "format": "binding, Mycobacterium tuberculosis", "details": "4 °C; for Kd: read-out: CO Kd, from koff and kon; for CO koff / CO kon: stopped flow; for CO koff: displacement with air saturated buffer or NO solutions; for CO kon: phosphate buffer (50 mM) pH 7.5, 200 mM NaCl, 1 mM EDTA"}, "[6]": {"experiment": "Oxygen association rates of DevS proteins, laser flash photolysis", "format": "binding, Mycobacterium tuberculosis", "details": "pH 7.5 phosphate buffer (20 mM), 200 mM NaCl, 1 mM EDTA"}, "[7]": {"experiment": "Oxygen dissociation rates of DevS proteins, stopped flow", "format": "binding, Mycobacterium tuberculosis", "details": "read-out: O2 Kd; from koff and kon"}, "DevS kinase": {"test_system": "DevS kinase", "details": "cited from earlier work"}, "[8]": {"details": "phosphate buffer (50 mM), pH 7.5, 1 mM EDTA and 200 mM NaCl"}, "[9]": {"details": "ferrous unligated form (5c complex)"}, "[10]": {"details": "ligand binding: O2 (oxy ferrous 6c species)"}, "[11]": {"details": "CaCl2 0.1 mM, hepes buffer (20 mM), pH 7.5, Chelex 100"}, "[12]": {"details": "CuCl2 10 µM, hepes buffer (20 mM), pH 7.5, Chelex 100"}, "[13]": {"details": "FeCl3 0.1 mM (nominal), hepes buffer (20 mM), pH 7.5, Chelex 100"}, "[14]": {"details": "KCl 200 mM, hepes buffer (20 mM), pH 7.5, pretreated with Chelex 100"}, "[15]": {"details": "MgCl2 1 mM, hepes buffer (20 mM), pH 7.5, Chelex 100"}, "[16]": {"details": "NaCl 200 mM, hepes buffer (20 mM), pH 7.5, Chelex 100"}}, "note": "Changes are numbered by the printed parent chain. Names may count otherwise. Like-named read-outs stand apart in the source and are kept apart here.", "data": [{"molecule": "B1", "values": [{"measurement": "CO koff", "setting": "[1]", "value": 0.045, "unit": "s⁻¹"}, {"measurement": "CO kon", "setting": "[1]", "value": 5000, "unit": "M⁻¹ s⁻¹"}, {"measurement": "Kd", "setting": "[1]; read-out: CO Kd", "value": 9, "unit": "µM"}, {"measurement": "O2 koff", "setting": "[2]", "value": 20, "unit": "s⁻¹"}, {"measurement": "O2 kon", "setting": "[2]", "value": 145000, "unit": "M⁻¹ s⁻¹"}, {"measurement": "Kd", "setting": "[2]; read-out: O2 Kd", "value": 138, "unit": "µM"}, {"measurement": "autooxidation rate k", "setting": "[3]; pH7, 37 °C", "value": 2.8, "unit": "h⁻¹"}, {"measurement": "autooxidation t1/2", "setting": "[3]; pH7, 37 °C", "value": 0.25, "unit": "h"}]}, {"molecule": "B2", "values": [{"measurement": "autooxidation rate k", "setting": "[3]", "value": 0.7, "unit": "h⁻¹"}, {"measurement": "autooxidation t1/2", "setting": "[3]", "value": 1, "unit": "h"}]}, {"molecule": "B3", "values": [{"measurement": "autooxidation t1/2", "setting": "[3]; pH 9, 25 °C", "value": 63, "unit": "h"}]}, {"molecule": "B4", "values": [{"measurement": "autooxidation rate k", "setting": "[4]; [8]", "value": 0.012, "unit": "h⁻¹"}, {"measurement": "Kd", "setting": "[5]", "value": 3.33, "unit": "µM"}, {"measurement": "CO koff", "setting": "[5]", "value": "2.43 ± 0.15 ^b s^−1"}, {"measurement": "CO kon", "setting": "[5]", "value": "0.73 ± 0.071 ^b µM^−1s^−1"}, {"measurement": "O2 kon", "setting": "[6]", "value": "32.4 ^a µM^−1s^−1"}, {"measurement": "Kd", "setting": "[7]", "value": 0.12, "unit": "µM"}, {"measurement": "kinase activity", "setting": "DevS kinase; [9]", "value": "active"}, {"measurement": "kinase activity", "setting": "DevS kinase; [10]", "value": "inactive"}]}, {"molecule": "B5", "values": [{"measurement": "autooxidation half life", "setting": "[4]; 0.1 mM Cu2+", "value": "less than 2 min"}, {"measurement": "autooxidation rate k", "setting": "[4]; [11]", "value": 0.0049, "unit": "h⁻¹"}, {"measurement": "autooxidation t1/2", "setting": "[4]; [11]", "value": 170, "unit": "h"}, {"measurement": "decrease of autooxidation rate on tenfold decrease in Cu2+ concentration", "setting": "[4]; Cu2+ from 100 to 10 µM", "value": "over 300 fold"}, {"measurement": "autooxidation rate k", "setting": "[4]; [12]", "value": 0.062, "unit": "h⁻¹"}, {"measurement": "autooxidation t1/2", "setting": "[4]; [12]", "value": 11, "unit": "h"}, {"measurement": "autooxidation rate k", "setting": "[4]; CuCl2 0.1 mM, hepes buffer (20 mM), pH 7.5, Chelex 100", "value": 25, "unit": "h⁻¹"}, {"measurement": "autooxidation rate k", "setting": "[4]; [13]", "value": 0.09, "unit": "h⁻¹"}, {"measurement": "autooxidation t1/2", "setting": "[4]; [13]", "value": 7.8, "unit": "h"}, {"measurement": "autooxidation rate k", "setting": "[4]; [14]", "value": 0.013, "unit": "h⁻¹"}, {"measurement": "autooxidation t1/2", "setting": "[4]; [14]", "value": 78, "unit": "h"}, {"measurement": "autooxidation rate k", "setting": "[4]; [15]", "value": 0.012, "unit": "h⁻¹"}, {"measurement": "autooxidation t1/2", "setting": "[4]; [15]", "value": 59, "unit": "h"}, {"measurement": "autooxidation rate k", "setting": "[4]; [16]", "value": 0.010, "unit": "h⁻¹"}, {"measurement": "autooxidation t1/2", "setting": "[4]; [16]", "value": 96, "unit": "h"}, {"measurement": "autooxidation rate k", "setting": "[4]; hepes 20 mM, pH 7.5, pretreated with Chelex 100, no added cation", "value": 0.0033, "unit": "h⁻¹"}, {"measurement": "autooxidation half-lives", "setting": "[4]; in the absence of Fe3+ and Cu2+", "value": "greater than one day"}, {"measurement": "autooxidation rates", "setting": "[4]; in the presence of K+, Na+, Mg2+, and Ca2+", "value": "0.005 to 0.02", "unit": "h⁻¹"}, {"measurement": "autooxidation rate k", "setting": "[4]; [8]", "value": 0.019, "unit": "h⁻¹"}, {"measurement": "autooxidation t1/2", "setting": "[4]; [8]", "value": "> 30", "unit": "h"}, {"measurement": "autooxidation t1/2", "setting": "[4]; phosphate buffer (50 mM), pH 7.5, 1 mM EDTA and 200 mM NaCl, listed as Full length wild-type DevS", "value": 73.6, "unit": "h"}, {"measurement": "Kd", "setting": "[5]", "value": 8.29, "unit": "µM"}, {"measurement": "CO koff", "setting": "[5]", "value": "2.57 ± 0.40 ^b s^−1"}, {"measurement": "CO kon", "setting": "[5]", "value": "0.31 ± 0.031 ^b µM^−1s^−1"}, {"measurement": "O2 kon", "setting": "[6]", "value": "11.8 ^a µM^−1s^−1"}, {"measurement": "Kd", "setting": "[7]", "value": 0.58, "unit": "µM"}, {"measurement": "autooxidation half life", "setting": "[3]; 37 °C, full length DevS from a slow expressing vector", "value": 4, "unit": "h"}, {"measurement": "kinase activity", "setting": "DevS kinase; [9]", "value": "active"}, {"measurement": "kinase activity", "setting": "DevS kinase; ferrous unligated form (5c complex), listed as wild-type DevS", "value": "intermediate kinase activity"}, {"measurement": "kinase activity", "setting": "DevS kinase; ligand binding: CO and NO", "value": "further activates the kinase"}, {"measurement": "kinase activity", "setting": "DevS kinase; [10]", "value": "inactive"}, {"measurement": "kinase activity", "setting": "DevS kinase; ligand binding: O2 (oxy ferrous 6c species), listed as wild-type DevS", "value": "completely inactivates it"}]}]}
